Starred links: 1 amine or outer side, 2 acyl side, 3 side chain; linkers in the order of their positions; H or OH if unused. Positions of bridges follow the written chain, without caps; N, C: chain ends. Non-standard residues stand in square brackets, D forms with d. Groups on a side chain read outwards from the residue. Primed or numbered codes have the meaning given here. *: point of attachment. W5N = 2-amino-3-(1H-pyrrolo[3,2-c]pyridin-3-yl)propanoic acid (5-aza-tryptophan), O=C([C@H](Cc1c[nH]c2ccncc12)N[*:1])[*:2]; MeHseMe(3) = N-methyl-O-methyl-homoserine, 4-methoxy-2-(methylamino)butanoic acid, COCC[C@@H](C(=O)[*:2])N(C)[*:1]; F4aao″ = 2-amino-3-(4-(carboxymethoxy)phenyl)propanoic acid, O=C([C@H](Cc1ccc(OCC(=O)[*:3])cc1)N[*:1])[*:2]; F4aao = 4-(carboxymethoxy)-L-phenylalanine, O=C([C@H](Cc1ccc(OCC(=O)[*:3])cc1)N[*:1])[*:2]; MeHseMe = N-methyl-O-methyl-L-homoserine, COCC[C@@H](C(=O)[*:2])N(C)[*:1]; Thr(Me)(3) = TMe, O-methyl-L-threonine, CO[C@H](C)[C@H](N[*:1])C(=O)[*:2]; Thr(Me)″ = TMe = O-methyl-L-threonine, CO[C@H](C)[C@H](N[*:1])C(=O)[*:2]; Phe(4-(1-Me-pyrazol-4-yl)) = Cn1cc(-c2ccc(C[C@H](N)C(=O)O)cc2)cn1; TMe = O-methyl-L-threonine, CO[C@H](C)[C@H](N[*:1])C(=O)[*:2]; NMeAla(isoquinolin-7-yl) = CN[C@@H](Cc1ccc2ccncc2c1)C(=O)O; SulfoCy5(3) = sulfo-Cyanine5 hexanoyl dye on the lysine NZ; PEG12 = NCCOCCOCCOCCOCCOCCOCCOCCOCCOCCOCCOCCOCCC(=O)O; Phe(4-CH2COOH) = N[C@@H](Cc1ccc(CC(=O)O)cc1)C(=O)O; 3Pal(6-Ph) = N[C@@H](Cc1ccc(-c2ccccc2)nc1)C(=O)O; Biotin = O=C1N[C@H]2[C@H](CS[C@H]2CCCCC(=O)*)N1; Phe(4-COOH) = N[C@@H](Cc1ccc(C(=O)O)cc1)C(=O)O; NMe2Nal = CN[C@@H](Cc1ccc2ccccc2c1)C(=O)O; AEF = NCCOc1ccc(C[C@H](N)C(=O)O)cc1; NMe3Pal = CN[C@@H](Cc1cccnc1)C(=O)O; NMeI = CC[C@H](C)[C@H](NC)C(=O)O; aIle = CC[C@@H](C)[C@H](N)C(=O)O; NMeQ = CN[C@@H](CCC(N)=O)C(=O)O; NMeK = CN[C@@H](CCCCN)C(=O)O; NMeC = CN[C@@H](CS)C(=O)O; NMeA = CN[C@@H](C)C(=O)O; MeK = methyl-L-lysine

The assay has as its target T1, Human Glypican3-Fc (ACRO Biosystems, GP3-H5258) (human, UniProt P51654 25-559).
T1 construct: Bought fusion protein, captured in Methods B-2, B-3 and B-4; Catalogue number is printed only in Method B-2; not shown: Fc part of the bought fusion
Nature of the assay: SPR (Biacore T200), Method B-3: Glypican3-Fc captured on Protein A chip, peptide as analyte. As to the method:
A Protein A sensor chip (Cytiva) was inserted into a Biacore T200 (Cytiva), priming was performed three times with a running buffer: HBS-P+, pH 7.4 (Cytiva), and equilibration was carried out at a flow rate of 30 μL/min. Glypican3-Fc was allowed to react for 60 seconds at a flow rate of 10 μL/min. After capturing human Glypican3-Fe, a peptide solution prepared to 10 mM in DMSO solution was diluted with a running buffer to a final concentration of 10 μM. […] Using the above samples, peptide kinetics for Glypican3 was obtained by SPR measurement. Kinetics evaluation of Glypican3 was performed by SPR measurements at a flow rate of 10 LL/min, setting the association time to 120 seconds and the disassociation time to 600 seconds.
The obtained data by Method B-1, Method B-2, Method B-3 and Method B-4 were analyzed by follow. Single Cycle Kinetics was used as the kinetics evaluation model, and curve fitting was performed using Biacore T200 Evaluation Software Version 3.0 (Cytiva).

By Kd is commonly meant the equilibrium constant for the complex coming apart. Turning to {CH2CO}-[NMeK]([PEG12-Biotin])[NMeI]D[NMeQ][Phe(4-COOH)]IIY[NMeAla(isoquinolin-7-yl)]G[3Pal(6-Ph)][NMeC]-NH2 (thioether N-12, Biotin conjugate) [PLB-1], the affinity, expressed as Kd, was 0.25 nM.

Consider {CH2CO}-[NMeK](SulfoCy5(3))[NMeI]D[NMeQ][Phe(4-COOH)]IIY[NMeAla(isoquinolin-7-yl)]G[3Pal(6-Ph)][NMeC]-NH2 (thioether N-12) [PLD-1], for which the Kd stood at 0.32 nM.

B1: PLB-35 (peptide)
peptide: KQDQFTIFFGXC
modifications: biotin-PEG12c conjugate of the peptide of SEQ ID No. 35 (MeK-MeQ-D-MeQ-F4COO-TMe-I-F4aao-MeNal27N-G-3Py6Ph-MeC-NH2); site of attachment shown only in a drawing; thioether ring from N-terminal acetyl to MeC12
The molecule B1 had an equilibrium dissociation constant (Kd) of 3.63 nM.

B2: Macrocyclic peptide of Example 2-32 (SEQ ID No. 49) (peptide)
peptide: KKDKFTIFFGXC
modifications: not fully specified; MeK-MeKCOpipzaa-D-MeKCOpipzaa-F4COO-TMe-I-F4aaopipzaa-MeNal27N-G-3Py6Ph-MeC-NH2; thioether ring from N-terminal acetyl to MeC12
Turning to B2, the Kd was found to be 1.8 nM.

For {CH2CO}-[NMeA][MeHseMe]D[NMeQ][Phe(4-COOH)][Thr(Me)″]I[AEF][NMe2Nal]G[3Pal(6-Ph)][NMeC]-NH2 (thioether N-12) [Macrocyclic peptide of Example 2-28 (SEQ ID No. 44)], the affinity, expressed as Kd, was 0.3 nM.

As to {CH2CO}-[MeK][MeHseMe(3)]D[NMeQ][Phe(4-COOH)]II[Phe(4-CH2COOH)][NMe2Nal]G[3Pal(6-Ph)][NMeC]-NH2 (thioether N-12) [Macrocyclic peptide of Example 2-47 (SEQ ID No. 21)], the Kd worked out at 0.2 nM. This Kd and that of the molecule before are within 1.5-fold of each other.

B3: Macrocyclic peptide of Example 2-43 (SEQ ID No. 32) (peptide)
peptide: {CH2CO}-[NMeK][NMeI]D[NMeQ][Phe(4-COOH)][TMe]I[F4aao″][NMeAla(isoquinolin-7-yl)]G[3Pal(6-Ph)][NMeC]E-NH2
modifications: thioether N-12
SMILES: CC[C@H](C)[C@@H]1NC(=O)[C@H]([C@@H](C)OC)NC(=O)[C@H](Cc2ccc(C(=O)O)cc2)NC(=O)[C@H](CCC(N)=O)N(C)C(=O)[C@H](CC(=O)O)NC(=O)[C@H]([C@@H](C)CC)N(C)C(=O)[C@H](CCCCN)N(C)C(=O)CSC[C@@H](C(=O)N[C@@H](CCC(=O)O)C(N)=O)N(C)C(=O)[C@H](Cc2ccc(-c3ccccc3)nc2)NC(=O)CNC(=O)[C@H](Cc2ccc3ccncc3c2)N(C)C(=O)[C@H](Cc2ccc(OCC(=O)O)cc2)NC1=O
With B3, the Kd is 9.3 nM.

As to {CH2CO}-[MeK][NMeI]Q[NMeQ][Phe(4-COOH)]II[Phe(4-COOH)][NMe2Nal]G[Phe(4-(1-Me-pyrazol-4-yl))][NMeC]-NH2 (thioether N-12) [Macrocyclic peptide of Example 2-46 (SEQ ID No. 6)], the dissociation constant Kd was determined as 0.2 nM.

B4: Macrocyclic peptide of Example 2-39 (SEQ ID No. 67) (peptide)
peptide: ASDYIIYFGXC
modifications: not fully specified; MeA-S-(position 3 absent)-D-Y-I-I-Y-MeNal2-G-3Py6Ph-MeC-NH2; thioether ring from N-terminal acetyl to MeC
notes: 11 residues
Molecule B4 returned an equilibrium dissociation constant (Kd) of 25.3 nM.

B5: Macrocyclic peptide of Example 2-44 (SEQ ID No. 69) (peptide)
peptide: {CH2CO}-[NMeA][NMe3Pal]DY[aIle]IY[NMe2Nal]G[3Pal(6-Ph)][NMeC]-NH2
modifications: thioether N-11
SMILES: CC[C@@H](C)[C@@H]1NC(=O)[C@H](Cc2ccc(O)cc2)NC(=O)[C@H](CC(=O)O)NC(=O)[C@H](Cc2cccnc2)N(C)C(=O)[C@H](C)N(C)C(=O)CSC[C@@H](C(N)=O)N(C)C(=O)[C@H](Cc2ccc(-c3ccccc3)nc2)NC(=O)CNC(=O)[C@H](Cc2ccc3ccccc3c2)N(C)C(=O)[C@H](Cc2ccc(O)cc2)NC(=O)[C@H]([C@@H](C)CC)NC1=O
notes: 11 residues
B5 had a Kd of 49.1 nM.

B6: Macrocyclic peptide of Example 2-41 (SEQ ID No. 68) (peptide)
peptide: {CH2CO}-[NMeA]S[W5N]YIIY[NMe2Nal]G[3Pal(6-Ph)][NMeC]-NH2
modifications: thioether N-11
SMILES: CC[C@H](C)[C@@H]1NC(=O)[C@H](Cc2ccc(O)cc2)NC(=O)[C@H](Cc2c[nH]c3ccncc23)NC(=O)[C@H](CO)NC(=O)[C@H](C)N(C)C(=O)CSC[C@@H](C(N)=O)N(C)C(=O)[C@H](Cc2ccc(-c3ccccc3)nc2)NC(=O)CNC(=O)[C@H](Cc2ccc3ccccc3c2)N(C)C(=O)[C@H](Cc2ccc(O)cc2)NC(=O)[C@H]([C@@H](C)CC)NC1=O
notes: 11 residues
For B6, the affinity, expressed as Kd, was 58.5 nM.

B7: Macrocyclic peptide of Example 2-26 (SEQ ID No. 30) (peptide)
peptide: {CH2CO}-[NMeK][NMeI]D[NMeQ][Phe(4-COOH)][Thr(Me)(3)]I[F4aao][NMeAla(isoquinolin-7-yl)]G[3Pal(6-Ph)][NMeC]-NH2
modifications: thioether N-12
SMILES: CC[C@H](C)[C@@H]1NC(=O)[C@H]([C@@H](C)OC)NC(=O)[C@H](Cc2ccc(C(=O)O)cc2)NC(=O)[C@H](CCC(N)=O)N(C)C(=O)[C@H](CC(=O)O)NC(=O)[C@H]([C@@H](C)CC)N(C)C(=O)[C@H](CCCCN)N(C)C(=O)CSC[C@@H](C(N)=O)N(C)C(=O)[C@H](Cc2ccc(-c3ccccc3)nc2)NC(=O)CNC(=O)[C@H](Cc2ccc3ccncc3c2)N(C)C(=O)[C@H](Cc2ccc(OCC(=O)O)cc2)NC1=O
Molecule B7 yielded a Kd of 0.3 nM. Compared with the last molecule, the Kd is about 200-fold lower.

Source of the values: patent publication US20260241049A1, “Radiopharmaceutical Compositions Targeting Glypican-3 and Uses Thereof” (RayzeBio, Inc., priority 2023, published 2026).
